Results published in PMC7144899.

Legend:
[1] = target: His-AnaRneN (N-terminal catalytic domain of Anabaena RNase E) (Anabaena PCC 7120); assay: ITC
[2] = target: AnaRne-GFP (RNase E tagged with GFP at the C-terminus, in situ) (Anabaena PCC 7120) (UniProt Q8YP69); assay: FRET or BRET
UniProt Q8YP69, sequence (Q8YP69 whole entry): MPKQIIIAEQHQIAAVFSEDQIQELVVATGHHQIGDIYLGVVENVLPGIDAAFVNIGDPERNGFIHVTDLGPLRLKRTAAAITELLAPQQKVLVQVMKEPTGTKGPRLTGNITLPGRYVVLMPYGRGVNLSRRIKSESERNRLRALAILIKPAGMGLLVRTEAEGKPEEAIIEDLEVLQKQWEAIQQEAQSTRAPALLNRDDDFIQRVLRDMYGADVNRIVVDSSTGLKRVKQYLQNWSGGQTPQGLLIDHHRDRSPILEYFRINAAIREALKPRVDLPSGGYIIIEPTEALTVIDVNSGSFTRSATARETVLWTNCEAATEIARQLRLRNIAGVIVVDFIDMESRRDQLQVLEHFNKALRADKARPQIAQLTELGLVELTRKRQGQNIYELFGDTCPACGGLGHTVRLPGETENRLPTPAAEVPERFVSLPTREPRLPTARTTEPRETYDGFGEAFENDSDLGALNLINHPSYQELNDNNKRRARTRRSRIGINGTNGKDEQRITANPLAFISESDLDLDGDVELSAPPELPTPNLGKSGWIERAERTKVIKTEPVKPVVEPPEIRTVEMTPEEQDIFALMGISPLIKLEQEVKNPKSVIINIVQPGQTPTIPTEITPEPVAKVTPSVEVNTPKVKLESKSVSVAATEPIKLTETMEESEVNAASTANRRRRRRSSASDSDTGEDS

| Kd [1] [nM] | stoichiometry N [1] | FRET efficiency [2] | Substance |
| --- | --- | --- | --- |
| 2770 | 1 | – | Alr1240-Strep (Alr1240 with a C-terminal Strep tag fusion) (enzyme) |
| – | – | 0.7 | AnaRnb-BFP (RNase II tagged with BFP at the C-terminus, in situ) (enzyme) |
